± gives the uncertainty stated by the source.
Experiment: self-splicing fitness, log relative to wild type (ln ratio); higher = more splicing; Tetrahymena group I intron in knt gene, E. coli kanamycin selection, DiMSum; sequences stand for … in CUCUCU…GGAGGGAAAAGUUAUCAGGCAUGCACCUGGUAGCUAGUCUUUAAACCAAUAGAUUGCAUCGGUUUAAAAGGCAAGACCGUCAAAUUGCGGGAAAGGGGUCAACAGCCGUUCAGUACCAAGUCUCAGGGGAAACUUUGAGAUGGCCUUGCAAAGGGUAUGGUAAUAAGCUGACGGACAUGGUCCUAACCACGCAGCCAAGUCCUAAGUCAACAGAUCUUCUGUUGAUAUGGAUGCAGUUCACAGACUAAAUGUCGGUCGGGGAAGAUGUAUUCUUCUCAUAAGAUAUAGUCGGACCUCUCCUUAAUGGGAGCUAGCGGAUGAAGUGAUGCAACACUGGAGCCGCUGGGAACUAAUUUGUAUGCGAAAGUAUAUUGAUUAGUUUUGGAGUACUCGUGGUCG
Outline: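 DiMSum derived fitness as the error-weighted combination of fold changes across replicates, kanamycin versus no kanamycin, normalised to wild type. E. coli BL21(DE3) held the library, which randomised all eight P1ex-region intron nucleotides within the knt kanamycin-resistance gene on pET-22b(+). Six replicate transformations grew overnight at 37°C or 30°C on LB agar with or without 25 μg/mL kanamycin, also containing 100 μg/mL carbenicillin, 50 μM IPTG and 0.2% rhamnose, and pooled colonies were amplicon-sequenced on an Illumina HiSeq 2500.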

| Sequence | self-splicing fitness (ln) (30 °C) | self-splicing fitness (ln) (37 °C) |
| --- | --- | --- |
| CUCCAGCAAUAUUACGGCUG | -2.12 ± 0.22 | -2.99 ± 0.4 |
| CUCCAGCAAUAUUACGGGAC | -2.79 ± 0.11 | -2.17 ± 0.14 |
| CUCCAGCAAUAUUACGGUCU | -4 ± 0.23 | -2.31 ± 0.2 |
| CUCCAGCAAUAUUACGUACA | -3.85 ± 0.19 | -2.08 ± 0.2 |
| CUCCAGCAAUAUUACGUAGC | -2.49 ± 0.2 | -2.36 ± 0.25 |
| CUCCAGCAAUAUUACGUCGC | -4.34 ± 0.23 | -2.96 ± 0.23 |
| CUCCAGCAAUAUUACGUGGA | -3.5 ± 0.18 | -2.7 ± 0.16 |
| CUCCAGCAAUAUUACGUUGC | -3.98 ± 0.27 | -1.77 ± 0.15 |
| CUCGAGCAAUAUUACGAACU | -3.1 ± 0.26 | -2.8 ± 0.43 |
| CUCGAGCAAUAUUACGAAGC | -3.7 ± 0.16 | -3.28 ± 0.21 |
| CUCGAGCAAUAUUACGAUGG | -1.83 ± 0.083 | -1.61 ± 0.1 |
| CUCGAGCAAUAUUACGAUUG | -2.53 ± 0.34 | -2.04 ± 0.3 |
| CUCGAGCAAUAUUACGCAUA | -2.34 ± 0.26 | – |
| CUCGAGCAAUAUUACGCGAU | -3.25 ± 0.17 | -2.96 ± 0.23 |
| CUCGAGCAAUAUUACGCGUG | -3.43 ± 0.26 | -2.03 ± 0.19 |
| CUCGAGCAAUAUUACGCGUU | -3.72 ± 0.31 | -0.305 ± 0.2 |
| CUCGAGCAAUAUUACGCUAU | -2.92 ± 0.26 | -2.8 ± 0.26 |
| CUCGAGCAAUAUUACGGAUC | – | 0.135 ± 0.27 |
| CUCGAGCAAUAUUACGGAUU | -3.59 ± 0.19 | -2.98 ± 0.27 |
| CUCGAGCAAUAUUACGGUGA | -2.66 ± 0.19 | -0.793 ± 0.16 |
| CUCGAGCAAUAUUACGUAUC | -4.31 ± 0.3 | -2.78 ± 0.29 |
| CUCGAGCAAUAUUACGUCAC | -3.1 ± 0.3 | -1.11 ± 0.22 |
| CUCGAGCAAUAUUACGUCGA | -3.29 ± 0.28 | -1.67 ± 0.24 |
| CUCUAGCAAUAUUACGAAAU | -3.13 ± 0.21 | -3.18 ± 0.27 |
| CUCUAGCAAUAUUACGACAU | -3.866 ± 0.033 | -3.6 ± 0.044 |
| CUCUAGCAAUAUUACGCAAC | -3.63 ± 0.2 | -3.59 ± 0.28 |

| Sequence | self-splicing fitness (ln) (30 °C) | self-splicing fitness (ln) (37 °C) |
| --- | --- | --- |
| CUCUAGCAAUAUUACGCACU | -2.77 ± 0.31 | -3.07 ± 0.25 |
| CUCUAGCAAUAUUACGCCAG | -2.53 ± 0.32 | – |
| CUCUAGCAAUAUUACGCCUC | -1.49 ± 0.3 | – |
| CUCUAGCAAUAUUACGCGAA | -2.68 ± 0.24 | -3.56 ± 0.28 |
| CUCUAGCAAUAUUACGGAGA | -1.93 ± 0.47 | -0.951 ± 0.27 |
| CUCUAGCAAUAUUACGGAGG | -2.14 ± 0.2 | -1.32 ± 0.21 |
| CUCUAGCAAUAUUACGGUAC | -2.88 ± 0.39 | -4.12 ± 0.46 |
| CUCUAGCAAUAUUACGGUAG | -4.49 ± 0.33 | -1.79 ± 0.23 |
| CUCUAGCAAUAUUACGGUGU | -3 ± 0.19 | -2.63 ± 0.3 |
| CUCUAGCAAUAUUACGGUUG | -1.83 ± 0.12 | -0.869 ± 0.14 |
| CUCUAGCAAUAUUACGUAAA | -3.71 ± 0.35 | -0.971 ± 0.17 |
| CUCUAGCAAUAUUACGUCAC | -2.66 ± 0.19 | – |
| CUCUAGCAAUAUUACGUGGG | -4.79 ± 0.29 | -2.73 ± 0.18 |
| CUCUAGCAAUAUUACGUUAG | -3.81 ± 0.24 | -2.13 ± 0.22 |
| CUCUAGCAAUAUUACGUUUU | -4.1 ± 0.22 | -3.15 ± 0.16 |
| CUGAAGCAAUAUUACGAAAA | -4.17 ± 0.25 | -2.59 ± 0.22 |
| CUGAAGCAAUAUUACGAGGA | -3.46 ± 0.17 | -1.95 ± 0.2 |
| CUGAAGCAAUAUUACGCAAA | -4.27 ± 0.42 | – |
| CUGAAGCAAUAUUACGCAUU | -2.24 ± 0.12 | -2.45 ± 0.17 |
| CUGAAGCAAUAUUACGCUAU | -3.68 ± 0.16 | -2.04 ± 0.14 |
| CUGAAGCAAUAUUACGCUCA | -3.73 ± 0.37 | -0.356 ± 0.22 |
| CUGAAGCAAUAUUACGCUGG | -3.37 ± 0.33 | -2.3 ± 0.34 |
| CUGAAGCAAUAUUACGGACU | -2.85 ± 0.22 | -0.495 ± 0.17 |
| CUGAAGCAAUAUUACGGAGG | -3.67 ± 0.21 | -1.81 ± 0.24 |
| CUGAAGCAAUAUUACGGCAA | -3.04 ± 0.2 | -1.21 ± 0.2 |
| CUGAAGCAAUAUUACGGCAG | -0.522 ± 0.11 | -0.657 ± 0.14 |

| Sequence | self-splicing fitness (ln) (30 °C) | self-splicing fitness (ln) (37 °C) |
| --- | --- | --- |
| CUGAAGCAAUAUUACGGCGG | -0.674 ± 0.073 | -0.503 ± 0.1 |
| CUGAAGCAAUAUUACGGGAA | -2.05 ± 0.18 | – |
| CUGAAGCAAUAUUACGGGAG | -0.441 ± 0.067 | -0.168 ± 0.078 |
| CUGAAGCAAUAUUACGGUAU | -3.66 ± 0.26 | -2.54 ± 0.28 |
| CUGAAGCAAUAUUACGGUCA | -1.38 ± 0.096 | -0.796 ± 0.13 |
| CUGAAGCAAUAUUACGGUGC | -2.89 ± 0.25 | – |
| CUGAAGCAAUAUUACGGUGG | -1.02 ± 0.065 | -0.466 ± 0.094 |
| CUGAAGCAAUAUUACGUAUC | -3.82 ± 0.23 | -1.78 ± 0.23 |
| CUGAAGCAAUAUUACGUCUC | – | -1.47 ± 0.18 |
| CUGAAGCAAUAUUACGUGAA | -2.91 ± 0.23 | -1.93 ± 0.26 |
| CUGCAGCAAUAUUACGAAGU | -4.26 ± 0.34 | – |
| CUGCAGCAAUAUUACGAAUU | -3.62 ± 0.22 | -3.18 ± 0.43 |
| CUGCAGCAAUAUUACGACAG | -2.43 ± 0.13 | -1.56 ± 0.18 |
| CUGCAGCAAUAUUACGACGA | -1.85 ± 0.18 | -1.16 ± 0.17 |
| CUGCAGCAAUAUUACGACUG | -2.56 ± 0.16 | -1.74 ± 0.2 |
| CUGCAGCAAUAUUACGAGGU | -3.65 ± 0.14 | -3.53 ± 0.2 |
| CUGCAGCAAUAUUACGAGUA | -2.85 ± 0.23 | -2.97 ± 0.28 |
| CUGCAGCAAUAUUACGAUAA | -3.39 ± 0.28 | -3.1 ± 0.28 |
| CUGCAGCAAUAUUACGCAGU | -1.6 ± 0.14 | -3.15 ± 0.35 |
| CUGCAGCAAUAUUACGCCUG | -2.21 ± 0.28 | -1.14 ± 0.28 |
| CUGCAGCAAUAUUACGCGAU | -1.12 ± 0.09 | -0.167 ± 0.12 |
| CUGCAGCAAUAUUACGCGUA | -1.22 ± 0.23 | -1.53 ± 0.22 |
| CUGCAGCAAUAUUACGGAAC | -3.88 ± 0.27 | -1.81 ± 0.27 |
| CUGCAGCAAUAUUACGGCAA | -0.665 ± 0.094 | 0.202 ± 0.088 |
| CUGCAGCAAUAUUACGGUAC | -4.59 ± 0.24 | -1.81 ± 0.21 |
| CUGCAGCAAUAUUACGGUCG | -0.487 ± 0.077 | 0.0459 ± 0.09 |

| Sequence | self-splicing fitness (ln) (30 °C) | self-splicing fitness (ln) (37 °C) |
| --- | --- | --- |
| CUGCAGCAAUAUUACGUAUU | -4.27 ± 0.18 | -3.51 ± 0.19 |
| CUGCAGCAAUAUUACGUCUC | – | -2.12 ± 0.26 |
| CUGCAGCAAUAUUACGUGAG | -0.703 ± 0.067 | 0.216 ± 0.093 |
| CUGGAGCAAUAUUACGAGAG | -3.54 ± 0.36 | -3.53 ± 0.33 |
| CUGGAGCAAUAUUACGAGUG | -1.26 ± 0.087 | -0.568 ± 0.12 |
| CUGGAGCAAUAUUACGAUGA | -3.18 ± 0.4 | -1.87 ± 0.24 |
| CUGGAGCAAUAUUACGCGGC | -1.27 ± 0.14 | 0.0532 ± 0.14 |
| CUGGAGCAAUAUUACGCUCG | -1.13 ± 0.18 | – |
| CUGGAGCAAUAUUACGCUUA | -2.59 ± 0.45 | -2.32 ± 0.35 |
| CUGGAGCAAUAUUACGGAAG | -3.48 ± 0.41 | -1.45 ± 0.28 |
| CUGGAGCAAUAUUACGUACA | – | -1.28 ± 0.48 |
| CUGGAGCAAUAUUACGUAGC | – | -2.38 ± 0.32 |
| CUGGAGCAAUAUUACGUCAG | -4.05 ± 0.46 | -2.59 ± 0.29 |
| CUGGAGCAAUAUUACGUCCG | -2.17 ± 0.16 | -0.559 ± 0.15 |
| CUGGAGCAAUAUUACGUCGU | -3.88 ± 0.23 | -2.39 ± 0.22 |
| CUGGAGCAAUAUUACGUCUU | -3.27 ± 0.39 | – |
| CUGGAGCAAUAUUACGUGCG | -1.44 ± 0.092 | -1.19 ± 0.12 |
| CUGGAGCAAUAUUACGUGGC | -2.22 ± 0.21 | -2.13 ± 0.25 |
| CUGGAGCAAUAUUACGUUUG | -2.66 ± 0.17 | -1.21 ± 0.17 |
| CUGUAGCAAUAUUACGAACC | -2.02 ± 0.47 | – |
| CUGUAGCAAUAUUACGAAUC | -3.03 ± 0.35 | – |
| CUGUAGCAAUAUUACGACAC | – | -2.65 ± 0.44 |
| CUGUAGCAAUAUUACGAGAU | -3.86 ± 0.16 | -2.21 ± 0.15 |

Source: the supplement of paper PMC7877785
